Test results from patent USRE49847 (dated 2024).

T1: soluble CD22-Fc (R&D Systems) (UniProt P20273 20-687)
T1 construct: Bought reagent used to stain CD22 CARs; not shown: Fc part; detected with anti-human IgG Fc-gamma secondary
T1 sequence (looked up): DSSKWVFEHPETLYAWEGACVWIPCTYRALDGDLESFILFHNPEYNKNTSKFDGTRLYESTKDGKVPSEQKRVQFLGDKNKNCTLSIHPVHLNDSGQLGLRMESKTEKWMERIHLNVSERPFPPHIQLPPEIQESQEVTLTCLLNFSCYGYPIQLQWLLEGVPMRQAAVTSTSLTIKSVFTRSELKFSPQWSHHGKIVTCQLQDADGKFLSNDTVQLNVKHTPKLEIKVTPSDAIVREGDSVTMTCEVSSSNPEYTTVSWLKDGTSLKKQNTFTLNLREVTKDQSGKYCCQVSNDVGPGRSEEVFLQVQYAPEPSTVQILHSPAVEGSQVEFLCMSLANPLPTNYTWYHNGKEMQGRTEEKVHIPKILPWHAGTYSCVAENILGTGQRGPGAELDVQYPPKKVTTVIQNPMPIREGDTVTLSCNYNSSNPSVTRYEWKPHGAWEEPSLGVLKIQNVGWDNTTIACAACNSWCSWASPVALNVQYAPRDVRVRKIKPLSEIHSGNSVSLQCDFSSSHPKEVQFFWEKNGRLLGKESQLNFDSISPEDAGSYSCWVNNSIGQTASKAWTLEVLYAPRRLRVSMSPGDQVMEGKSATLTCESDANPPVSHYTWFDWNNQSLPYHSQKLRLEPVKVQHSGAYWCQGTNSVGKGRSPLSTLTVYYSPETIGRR


Target: T1, soluble CD22-Fc (R&D Systems)
Experiment: FACS surface staining of transduced JNL cells with CD22-Fc

| binding result | Binder |
| --- | --- |
| binds | control anti-CD22 CAR CG#c170 (other, the tie is by that description, not by a printed label; not shown: hinge, transmembrane, 4-1BB and CD3zeta parts of the CAR) EVQLQQSGPGLVKPSQTLSLTCAISGDSMLSNSDTWNWIRQSPSRGLEWLGRTYHRSTWYDDYASSVRGRVSINVDTSKNQYSLQLNAVTPEDTGVYYCARVRLQDGNSWSDAFDVWGQGTMVTVSSGGGGSQSALTQPASASGSPGQSVTISCTGTSSDVGGYNYVSWYQQHPGKAPKLMIYDVSNRPSGVSNRFSGSKSGNTASLTISGLQAEDEADYYCSSYTSSSTLYVFGTGTQLTVL |
| binds | tandem CD22/CD19 CAR construct 184 (other, Distal anti-CD22 scFv H/L short linker, GGGGS, proximal anti-CD19 scFv; leader 1-21 left out; also called CG#c184; c184) EVQLQQSGPGLVKPSQTLSLTCAISGDSMLSNSDTWNWIRQSPSRGLEWLGRTYHRSTWYDDYASSVRGRVSINVDTSKNQYSLQLNAVTPEDTGVYYCARVRLQDGNSWSDAFDVWGQGTMVTVSSGGGGSQSALTQPASASGSPGQSVTISCTGTSSDVGGYNYVSWYQQHPGKAPKLMIYDVSNRPSGVSNRFSGSKSGNTASLTISGLQAEDEADYYCSSYTSSSTLYVFGTGTQLTVLGGGGSEIVMTQSPATLSLSPGERATLSCRASQDISKYLNWYQQKPGQAPRLLIYHTSRLHSGIPARFSGSGSGTDYTLTISSLQPEDFAVYFCQQGNTLPYTFGQGTKLEIKGGGGSGGGGSGGGGSQVQLQESGPGLVKPSETLSLTCTVSGVSLPDYGVSWIRQPPGKGLEWIGVIWGSETTYYQSSLKSRVTISKDNSKNQVSLKLSSVTAADTAVYYCAKHYYYGGSYAMDYWGQGTLVTVSSTTTPAPRPPTPAPTIASQPLSLRPEACRPAAGGAVHTRGLDFACDIYIWAPLAGTCGVLLLSLVITLYCKRGRKKLLYIFKQPFMRPVQTTQEEDGCSCRFPEEEEGGCELRVKFSRSADAPAYQQGQNQLYNELNLGRREEYDVLDKRRGRDPEMGGKPRRKNPQEGLYNELQKDKMAEAYSEIGMKGERRRGKGHDGLYQGLSTATKDTYDALHMQALPPR |
| binds | control anti-CD22 CAR CG#c176 (other, not shown: hinge, transmembrane, 4-1BB and CD3zeta parts of the CAR) QSALTQPASASGSPGQSVTISCTGTSSDVGGYNYVSWYQQHPGKAPKLMIYDVSNRPSGVSNRFSGSKSGNTASLTISGLQAEDEADYYCSSYTSSSTLYVFGTGTQLTVLGGGGSEVQLQQSGPGLVKPSQTLSLTCAISGDSMLSNSDTWNWIRQSPSRGLEWLGRTYHRSTWYDDYASSVRGRVSINVDTSKNQYSLQLNAVTPEDTGVYYCARVRLQDGNSWSDAFDVWGQGTMVTVSS |
| binds | tandem CD22/CD19 CAR construct 187 (other, Distal anti-CD22 scFv L/H short linker, LAEAAAK, proximal anti-CD19 scFv; leader 1-21 left out; also called CG#c187; c187) QSALTQPASASGSPGQSVTISCTGTSSDVGGYNYVSWYQQHPGKAPKLMIYDVSNRPSGVSNRFSGSKSGNTASLTISGLQAEDEADYYCSSYTSSSTLYVFGTGTQLTVLGGGGSEVQLQQSGPGLVKPSQTLSLTCAISGDSMLSNSDTWNWIRQSPSRGLEWLGRTYHRSTWYDDYASSVRGRVSINVDTSKNQYSLQLNAVTPEDTGVYYCARVRLQDGNSWSDAFDVWGQGTMVTVSSLAEAAAKEIVMTQSPATLSLSPGERATLSCRASQDISKYLNWYQQKPGQAPRLLIYHTSRLHSGIPARFSGSGSGTDYTLTISSLQPEDFAVYFCQQGNTLPYTFGQGTKLEIKGGGGSGGGGSGGGGSQVQLQESGPGLVKPSETLSLTCTVSGVSLPDYGVSWIRQPPGKGLEWIGVIWGSETTYYQSSLKSRVTISKDNSKNQVSLKLSSVTAADTAVYYCAKHYYYGGSYAMDYWGQGTLVTVSSTTTPAPRPPTPAPTIASQPLSLRPEACRPAAGGAVHTRGLDFACDIYIWAPLAGTCGVLLLSLVITLYCKRGRKKLLYIFKQPFMRPVQTTQEEDGCSCRFPEEEEGGCELRVKFSRSADAPAYQQGQNQLYNELNLGRREEYDVLDKRRGRDPEMGGKPRRKNPQEGLYNELQKDKMAEAYSEIGMKGERRRGKGHDGLYQGLSTATKDTYDALHMQALPPR |
| binds | tandem CD22/CD19 CAR construct 186 (other, Distal anti-CD22 scFv L/H, GGGGS, proximal anti-CD19 scFv; leader 1-21 left out; also called CG#c186; c186) QSALTQPASASGSPGQSVTISCTGTSSDVGGYNYVSWYQQHPGKAPKLMIYDVSNRPSGVSNRFSGSKSGNTASLTISGLQAEDEADYYCSSYTSSSTLYVFGTGTQLTVLGGGGSGGGGSGGGGSEVQLQQSGPGLVKPSQTLSLTCAISGDSMLSNSDTWNWIRQSPSRGLEWLGRTYHRSTWYDDYASSVRGRVSINVDTSKNQYSLQLNAVTPEDTGVYYCARVRLQDGNSWSDAFDVWGQGTMVTVSSGGGGSEIVMTQSPATLSLSPGERATLSCRASQDISKYLNWYQQKPGQAPRLLIYHTSRLHSGIPARFSGSGSGTDYTLTISSLQPEDFAVYFCQQGNTLPYTFGQGTKLEIKGGGGSGGGGSGGGGSQVQLQESGPGLVKPSETLSLTCTVSGVSLPDYGVSWIRQPPGKGLEWIGVIWGSETTYYQSSLKSRVTISKDNSKNQVSLKLSSVTAADTAVYYCAKHYYYGGSYAMDYWGQGTLVTVSSTTTPAPRPPTPAPTIASQPLSLRPEACRPAAGGAVHTRGLDFACDIYIWAPLAGTCGVLLLSLVITLYCKRGRKKLLYIFKQPFMRPVQTTQEEDGCSCRFPEEEEGGCELRVKFSRSADAPAYQQGQNQLYNELNLGRREEYDVLDKRRGRDPEMGGKPRRKNPQEGLYNELQKDKMAEAYSEIGMKGERRRGKGHDGLYQGLSTATKDTYDALHMQALPPR |
| binds | control anti-CD22 CAR CG#c175 (other, not shown: hinge, transmembrane, 4-1BB and CD3zeta parts of the CAR) QSALTQPASASGSPGQSVTISCTGTSSDVGGYNYVSWYQQHPGKAPKLMIYDVSNRPSGVSNRFSGSKSGNTASLTISGLQAEDEADYYCSSYTSSSTLYVFGTGTQLTVLGGGGSGGGGSGGGGSEVQLQQSGPGLVKPSQTLSLTCAISGDSMLSNSDTWNWIRQSPSRGLEWLGRTYHRSTWYDDYASSVRGRVSINVDTSKNQYSLQLNAVTPEDTGVYYCARVRLQDGNSWSDAFDVWGQGTMVTVSS |
| binds | tandem CD22/CD19 CAR construct 188 (other, Distal anti-CD22 scFv L/H short linker, GGGGS, proximal anti-CD19 scFv; leader 1-21 left out; also called CG#c188; c188) QSALTQPASASGSPGQSVTISCTGTSSDVGGYNYVSWYQQHPGKAPKLMIYDVSNRPSGVSNRFSGSKSGNTASLTISGLQAEDEADYYCSSYTSSSTLYVFGTGTQLTVLGGGGSEVQLQQSGPGLVKPSQTLSLTCAISGDSMLSNSDTWNWIRQSPSRGLEWLGRTYHRSTWYDDYASSVRGRVSINVDTSKNQYSLQLNAVTPEDTGVYYCARVRLQDGNSWSDAFDVWGQGTMVTVSSGGGGSEIVMTQSPATLSLSPGERATLSCRASQDISKYLNWYQQKPGQAPRLLIYHTSRLHSGIPARFSGSGSGTDYTLTISSLQPEDFAVYFCQQGNTLPYTFGQGTKLEIKGGGGSGGGGSGGGGSQVQLQESGPGLVKPSETLSLTCTVSGVSLPDYGVSWIRQPPGKGLEWIGVIWGSETTYYQSSLKSRVTISKDNSKNQVSLKLSSVTAADTAVYYCAKHYYYGGSYAMDYWGQGTLVTVSSTTTPAPRPPTPAPTIASQPLSLRPEACRPAAGGAVHTRGLDFACDIYIWAPLAGTCGVLLLSLVITLYCKRGRKKLLYIFKQPFMRPVQTTQEEDGCSCRFPEEEEGGCELRVKFSRSADAPAYQQGQNQLYNELNLGRREEYDVLDKRRGRDPEMGGKPRRKNPQEGLYNELQKDKMAEAYSEIGMKGERRRGKGHDGLYQGLSTATKDTYDALHMQALPPR |
| binds | tandem CD22/CD19 CAR construct 183 (other, Distal anti-CD22 scFv H/L short linker, LAEAAAK, proximal anti-CD19 scFv; leader 1-21 left out; also called CG#c183; c183) EVQLQQSGPGLVKPSQTLSLTCAISGDSMLSNSDTWNWIRQSPSRGLEWLGRTYHRSTWYDDYASSVRGRVSINVDTSKNQYSLQLNAVTPEDTGVYYCARVRLQDGNSWSDAFDVWGQGTMVTVSSGGGGSQSALTQPASASGSPGQSVTISCTGTSSDVGGYNYVSWYQQHPGKAPKLMIYDVSNRPSGVSNRFSGSKSGNTASLTISGLQAEDEADYYCSSYTSSSTLYVFGTGTQLTVLLAEAAAKEIVMTQSPATLSLSPGERATLSCRASQDISKYLNWYQQKPGQAPRLLIYHTSRLHSGIPARFSGSGSGTDYTLTISSLQPEDFAVYFCQQGNTLPYTFGQGTKLEIKGGGGSGGGGSGGGGSQVQLQESGPGLVKPSETLSLTCTVSGVSLPDYGVSWIRQPPGKGLEWIGVIWGSETTYYQSSLKSRVTISKDNSKNQVSLKLSSVTAADTAVYYCAKHYYYGGSYAMDYWGQGTLVTVSSTTTPAPRPPTPAPTIASQPLSLRPEACRPAAGGAVHTRGLDFACDIYIWAPLAGTCGVLLLSLVITLYCKRGRKKLLYIFKQPFMRPVQTTQEEDGCSCRFPEEEEGGCELRVKFSRSADAPAYQQGQNQLYNELNLGRREEYDVLDKRRGRDPEMGGKPRRKNPQEGLYNELQKDKMAEAYSEIGMKGERRRGKGHDGLYQGLSTATKDTYDALHMQALPPR |
| binds | tandem CD22/CD19 CAR construct 185 (other, Distal anti-CD22 scFv L/H, LAEAAAK, proximal anti-CD19 scFv; leader 1-21 left out; also called CG#c185; c185) QSALTQPASASGSPGQSVTISCTGTSSDVGGYNYVSWYQQHPGKAPKLMIYDVSNRPSGVSNRFSGSKSGNTASLTISGLQAEDEADYYCSSYTSSSTLYVFGTGTQLTVLGGGGSGGGGSGGGGSEVQLQQSGPGLVKPSQTLSLTCAISGDSMLSNSDTWNWIRQSPSRGLEWLGRTYHRSTWYDDYASSVRGRVSINVDTSKNQYSLQLNAVTPEDTGVYYCARVRLQDGNSWSDAFDVWGQGTMVTVSSLAEAAAKEIVMTQSPATLSLSPGERATLSCRASQDISKYLNWYQQKPGQAPRLLIYHTSRLHSGIPARFSGSGSGTDYTLTISSLQPEDFAVYFCQQGNTLPYTFGQGTKLEIKGGGGSGGGGSGGGGSQVQLQESGPGLVKPSETLSLTCTVSGVSLPDYGVSWIRQPPGKGLEWIGVIWGSETTYYQSSLKSRVTISKDNSKNQVSLKLSSVTAADTAVYYCAKHYYYGGSYAMDYWGQGTLVTVSSTTTPAPRPPTPAPTIASQPLSLRPEACRPAAGGAVHTRGLDFACDIYIWAPLAGTCGVLLLSLVITLYCKRGRKKLLYIFKQPFMRPVQTTQEEDGCSCRFPEEEEGGCELRVKFSRSADAPAYQQGQNQLYNELNLGRREEYDVLDKRRGRDPEMGGKPRRKNPQEGLYNELQKDKMAEAYSEIGMKGERRRGKGHDGLYQGLSTATKDTYDALHMQALPPR |
